Non-standard residues stand in square brackets, D forms with d. No end group written: not given here. Ahx = NCCCCCC(=O)O

The record followed here is US20220242939A1 (BIOARCTIC, published 2022).

The target in experiment [1] is 6F4, monoclonal anti-L198 antibody. The experiment can be described thus: inhibition ELISA; antibody at 0.05 ug/ml pre-incubated with the peptide in solution (4-fold dilutions from 10000 ng/ml), then on a plate coated with L198-BSA peptide; blank reduced OD 405 nm. As for the experimental part: (§1) 0.5 μg/ml solution of N-terminal neo-epitope peptide L198 (SEQ ID NO:52) conjugated to BSA was prepared by dilution in PBS. 50 μl/well were added to an ELISA half-area 96 well microtiter plate, the plate was sealed with adhesive sealer and incubated over night at 4° C. After discarding the solution, the plates were blocked with protein-free blocking solution (Pierce) (150 μl/well) at room temperature for 90 min with shaking (900 rpm). The blocked plate was washed four times with washing buffer containing 0.28 mM NaH₂PO₄, 2.5 mM Na₂HPO₄, 150 mM NaCl, 0.1% TWEEN®-20 and 0.0075% Kathon CG.
(§2) Serial dilutions of each synthetic ApoE peptide were prepared by 4-fold dilution starting from 10000 ng/ml in 96 well storage plates (30 μl final volume). Each recombinant antibody to be tested was added (30 μl) to the serial dilutions of each of the synthetic ApoE peptides at a final concentration of 0.05 μg/ml per well. Samples were pre-incubated for 45 min at room temperature with shaking (900 rpm).
(§3) The pre-incubated samples were transferred (50 μl/well) to the blocked ELISA plates, and plates were incubated for 10 min at room temperature without shaking. Plates were washed as described above. Alkaline phosphatase conjugated anti-mouse IgG detection antibody (Mabtech, cat. no. 3310-4) was diluted 1:1000 and added to each plate (50 μl/well). The plate was sealed and incubated with shaking (900 rpm) for 45 min at room temperature and subsequently washed as described above. Alkaline phosphatase substrate (50 μl/well) was added to the plate and the optical density was read every 10 min at a wavelength of 405 nm for up to 120 min. The IC50 values were determined from a log inhibitor concentration response curve (FIG. 25).
For orientation: In an ELISA, binding on a coated surface is turned into a signal by an enzyme label.

Experiment [2] has as its target 36A12, monoclonal anti-A199 antibody. The experiment is described as follows: inhibition ELISA; antibody at 0.05 ug/ml pre-incubated with the peptide in solution (4-fold dilutions from 10000 ng/ml), then on a plate coated with A199-BSA peptide; blank reduced OD 405 nm. As for the experimental part: (§4) 0.5 μg/ml solution of N-terminal neo-epitope peptide A199 (SEQ ID NO:51) conjugated to BSA was prepared by dilution in PBS. 50 μl/well were added to an ELISA half-area 96 well microtiter plate, the plate was sealed with adhesive sealer and incubated over night at 4° C. After discarding the solution, the plates were blocked with protein-free blocking solution (Pierce) (150 μl/well) at room temperature for 90 min with shaking (900 rpm). The blocked plate was washed four times with washing buffer containing 0.28 mM NaH₂PO₄, 2.5 mM Na₂HPO₄, 150 mM NaCl, 0.1% TWEEN®-20 and 0.0075% Kathon CG.
(§5) Serial dilutions of each synthetic ApoE peptide were prepared by 4-fold dilution starting from 10000 ng/ml in 96 well storage plates (30 μl final volume). Each purified monoclonal antibody to be tested was added (30 μl) to the serial dilutions of each of the synthetic ApoE peptides at a final concentration of 0.05 μg/ml per well. Samples were pre-incubated for 45 min at room temperature with shaking (900 rpm).
as §3, with “29).” for “25).”

The target of experiment [3] is 38G9, monoclonal anti-A199 antibody. Described as above. On the procedure: as §4, §5
as §3, with “29).” for “25).”

In experiment [4] the target is T1, 7B10, recombinant IgG2c antibody.
T1 construct: also called 7610
The experiment can be described thus: inhibition ELISA, second protocol; antibody at 0.05 ug/ml pre-incubated with the peptide in solution (4-fold dilutions from 10000 ng/ml), then on a plate coated with G200-BSA peptide; blank reduced OD 405 nm. As for the experimental part: (§6) […] of each synthetic ApoE peptide, recombinant C-terminal ApoE fragment G200-HIS and full-length ApoE4 were prepared by 4-fold dilution starting from 1000 ng/ml in 96 well storage plates (30 μl final volume). Each recombinant antibody to be tested was added (30 μl) to the serial dilutions of each of the synthetic ApoE peptides, G200-HIS or full-length ApoE4 at a final concentration of 0.05 μg/ml per well. Samples were pre-incubated for 45 min at room temperature with shaking (900 rpm).
as §3, with “for 25” for “for 10”, “every 15” for “every 10”, “(FIG. 17).” for “(FIG. 25).”
(§7) In addition, a second inhibition ELISA with the ApoE peptides conjugated to BSA was run, in which the starting concentration of the antigens in solution was increased 10-fold. i.e. the starting concentration of the N-terminal neo-epitope of synthetic ApoE peptides conjugated to BSA and starting at amino acid L198 (SEQ ID NO:52), A199 (SEQ ID NO:51) or G200 (SEQ ID NO:50), or to BSA-conjugated negative control peptide (SEQ ID NO:53), was 10000 ng/ml. Furthermore, a 4-fold serial dilution of antigen was used, the plates were blocked with protein-free blocking solution (Pierce) for 90 min, the pre-incubated samples were incubated on the coated plates for 10 min (instead of 25 min), and the optical density was read every 10 min (instead of every 15 min). IC50 values were determined from a log inhibitor concentration response curve (FIG. 20).

Experiment [5] concerns the target 7C7, recombinant IgG2c antibody. The experiment is described as above. As for the experimental part:
as §6
as §3, with “for 25” for “for 10”, “every 15” for “every 10”, “(FIG. 17).” for “(FIG. 25).”
as §7

Experiment [6] addresses 17G4, recombinant IgG2c antibody. Described as above. On the procedure:
as §6
as §3, with “for 25” for “for 10”, “every 15” for “every 10”, “(FIG. 17).” for “(FIG. 25).”
as §7

Experiment [7] concerns the target 23D5, recombinant IgG2c antibody. The description is as above. As for the experimental part:
as §6
as §3, with “for 25” for “for 10”, “every 15” for “every 10”, “(FIG. 17).” for “(FIG. 25).”
as §7

For experiment [8], the target named is 28F2, recombinant IgG2c antibody. Described as above. As for the experimental part:
as §6
as §3, with “for 25” for “for 10”, “every 15” for “every 10”, “(FIG. 17).” for “(FIG. 25).”
as §7

In experiment [9] the target is 6F4, monoclonal anti-L198 antibody. The experiment can be described thus: inhibition ELISA: antigen in solution varied, antibody 6F4 at 0.05 µg/ml, plate coated with L198-BSA peptide. On the procedure: as §1, §2
(§8) The pre-incubated samples were transferred (50 μl/well) to the blocked ELISA plates, and plates were incubated for 10 min at room temperature without shaking. […] Alkaline phosphatase substrate (50 μl/well) was added to the plate and the optical density was read every 10 min at a wavelength of 405 nm for up to 120 min. The IC50 values were determined from a log inhibitor concentration response curve (FIG. 25).

For experiment [10], the target named is 8B3, monoclonal anti-L198 antibody. The experiment is described as follows: inhibition ELISA: antigen in solution varied, antibody 8B3 at 0.05 µg/ml, plate coated with L198-BSA peptide. As for the experimental part: as §1, §2, §8
In experiment [11] the target is 12B1, monoclonal anti-L198 antibody. The experiment can be described thus: inhibition ELISA: antigen in solution varied, antibody 12B1 at 0.05 µg/ml, plate coated with L198-BSA peptide. As for the experimental part: as §1, §2, §8
The target of experiment [12] is 15F8, monoclonal anti-L198 antibody. The experiment can be described thus: inhibition ELISA: antigen in solution varied, antibody 15F8 at 0.05 µg/ml, plate coated with L198-BSA peptide. As for the experimental part:
as §1, §2, §8

The target of experiment [13] is 15H11, monoclonal anti-L198 antibody. The experiment can be described thus: inhibition ELISA: antigen in solution varied, antibody 15H11 at 0.05 µg/ml, plate coated with L198-BSA peptide. On the procedure: as §1, §2, §8
Experiment [14] deals with T1, 7B10, recombinant IgG2c antibody. The experiment is described as follows: inhibition ELISA; antibody at 0.05 ug/ml pre-incubated with the antigen in solution (3-fold dilutions from 1000 ng/ml), then on a plate coated with G200-BSA peptide; blank reduced OD 405 nm. As for the experimental part:
as §6
as §3, with “for 25” for “for 10”, “every 15” for “every 10”, “(FIG. 17).” for “(FIG. 25).”

For experiment [15], the target named is 7C7, recombinant IgG2c antibody. The description is as above. On the procedure: as §6
as §3, with “for 25” for “for 10”, “every 15” for “every 10”, “(FIG. 17).” for “(FIG. 25).”

The target in experiment [16] is 17G4, recombinant IgG2c antibody. Described as above. On the procedure:
as §6
as §3, with “for 25” for “for 10”, “every 15” for “every 10”, “(FIG. 17).” for “(FIG. 25).”

Experiment [17] addresses 23D5, recombinant IgG2c antibody. The description is as above. As for the experimental part:
as §6
as §3, with “for 25” for “for 10”, “every 15” for “every 10”, “(FIG. 17).” for “(FIG. 25).”

For experiment [18], the target named is 28F2, recombinant IgG2c antibody. Described as above. As for the experimental part:
as §6
as §3, with “for 25” for “for 10”, “every 15” for “every 10”, “(FIG. 17).” for “(FIG. 25).”

Experiment [19] addresses 63F6, monoclonal anti-A199 antibody. The experiment is described as follows: inhibition ELISA; antibody at 0.05 ug/ml pre-incubated with the peptide in solution (4-fold dilutions from 10000 ng/ml), then on a plate coated with A199-BSA peptide; blank reduced OD 405 nm. As for the experimental part:
as §4, §5
as §3, with “29).” for “25).”

Sequence of 38G9, monoclonal anti-A199 antibody (VH, as listed by the source, chain 1 of 2): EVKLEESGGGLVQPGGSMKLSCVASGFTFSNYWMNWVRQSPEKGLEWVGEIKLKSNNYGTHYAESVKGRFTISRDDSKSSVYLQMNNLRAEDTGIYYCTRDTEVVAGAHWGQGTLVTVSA
Sequence of 38G9, monoclonal anti-A199 antibody (VL, as listed by the source, chain 2 of 2): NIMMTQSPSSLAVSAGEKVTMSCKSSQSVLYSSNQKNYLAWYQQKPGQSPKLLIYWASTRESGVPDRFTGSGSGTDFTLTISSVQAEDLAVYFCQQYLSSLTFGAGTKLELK
Sequence of 23D5, recombinant IgG2c antibody (VH, as listed by the source, chain 1 of 2): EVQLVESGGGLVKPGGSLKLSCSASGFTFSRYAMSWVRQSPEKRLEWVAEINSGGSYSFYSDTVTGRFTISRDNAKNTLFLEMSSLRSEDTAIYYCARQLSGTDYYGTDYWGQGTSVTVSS
Sequence of 23D5, recombinant IgG2c antibody (VL, as listed by the source, chain 2 of 2): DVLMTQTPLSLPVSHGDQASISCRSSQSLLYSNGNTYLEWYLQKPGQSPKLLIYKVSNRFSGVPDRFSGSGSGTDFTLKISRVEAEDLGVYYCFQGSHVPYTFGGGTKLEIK
T1 sequence (VH, as listed by the source, chain 1 of 2): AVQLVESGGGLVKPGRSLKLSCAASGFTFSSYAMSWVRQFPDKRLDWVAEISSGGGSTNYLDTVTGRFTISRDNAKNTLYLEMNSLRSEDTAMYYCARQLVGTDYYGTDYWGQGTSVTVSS
T1 sequence (VL, as listed by the source, chain 2 of 2): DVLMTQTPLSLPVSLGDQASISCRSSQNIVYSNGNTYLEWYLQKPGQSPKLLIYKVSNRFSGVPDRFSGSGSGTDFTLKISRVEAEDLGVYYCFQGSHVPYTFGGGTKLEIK
Sequence of 28F2, recombinant IgG2c antibody (VH, as listed by the source, chain 1 of 2): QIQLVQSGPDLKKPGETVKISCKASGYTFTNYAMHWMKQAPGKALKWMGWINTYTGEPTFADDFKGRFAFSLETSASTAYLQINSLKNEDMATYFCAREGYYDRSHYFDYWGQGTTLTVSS
Sequence of 28F2, recombinant IgG2c antibody (VL, as listed by the source, chain 2 of 2): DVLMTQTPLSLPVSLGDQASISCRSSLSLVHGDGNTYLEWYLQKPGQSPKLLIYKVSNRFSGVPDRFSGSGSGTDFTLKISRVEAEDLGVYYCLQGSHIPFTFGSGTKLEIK
Sequence of 36A12, monoclonal anti-A199 antibody (VH, as listed by the source, chain 1 of 2): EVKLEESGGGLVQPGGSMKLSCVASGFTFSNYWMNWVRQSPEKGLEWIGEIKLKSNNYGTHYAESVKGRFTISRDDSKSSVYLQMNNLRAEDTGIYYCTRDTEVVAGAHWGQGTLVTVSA
Sequence of 36A12, monoclonal anti-A199 antibody (VL, as listed by the source, chain 2 of 2): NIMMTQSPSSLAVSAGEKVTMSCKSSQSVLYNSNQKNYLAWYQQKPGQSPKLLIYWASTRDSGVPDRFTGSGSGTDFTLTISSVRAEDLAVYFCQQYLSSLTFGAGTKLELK
Sequence of 17G4, recombinant IgG2c antibody (VH, as listed by the source, chain 1 of 2): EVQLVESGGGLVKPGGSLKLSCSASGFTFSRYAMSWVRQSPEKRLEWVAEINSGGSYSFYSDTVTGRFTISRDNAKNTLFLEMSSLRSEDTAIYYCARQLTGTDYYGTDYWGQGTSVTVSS
Sequence of 7C7, recombinant IgG2c antibody (VH, as listed by the source, chain 1 of 2): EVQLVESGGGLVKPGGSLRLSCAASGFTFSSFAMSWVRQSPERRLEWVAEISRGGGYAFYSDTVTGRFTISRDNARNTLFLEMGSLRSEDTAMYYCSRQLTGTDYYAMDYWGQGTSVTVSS
Sequence of 7C7, recombinant IgG2c antibody (VL, as listed by the source, chain 2 of 2): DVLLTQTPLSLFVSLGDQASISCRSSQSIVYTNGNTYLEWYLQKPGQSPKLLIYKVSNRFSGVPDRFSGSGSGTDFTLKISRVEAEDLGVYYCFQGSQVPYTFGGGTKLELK
Sequence of 6F4, monoclonal anti-L198 antibody (VH, as listed by the source, chain 1 of 2): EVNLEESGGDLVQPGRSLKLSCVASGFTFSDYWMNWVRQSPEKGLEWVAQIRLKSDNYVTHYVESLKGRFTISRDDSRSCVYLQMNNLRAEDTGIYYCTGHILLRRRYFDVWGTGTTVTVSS
Sequence of 6F4, monoclonal anti-L198 antibody (VL, as listed by the source, chain 2 of 2): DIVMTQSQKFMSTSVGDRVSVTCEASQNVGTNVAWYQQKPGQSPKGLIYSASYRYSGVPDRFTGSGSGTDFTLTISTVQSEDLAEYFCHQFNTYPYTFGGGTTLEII
Sequence of 12B1, monoclonal anti-L198 antibody (VH, as listed by the source, chain 1 of 2): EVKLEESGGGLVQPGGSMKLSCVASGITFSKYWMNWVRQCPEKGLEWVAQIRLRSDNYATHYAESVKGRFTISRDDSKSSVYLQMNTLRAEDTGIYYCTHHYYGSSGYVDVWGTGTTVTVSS
Sequence of 12B1, monoclonal anti-L198 antibody (VL, as listed by the source, chain 2 of 2): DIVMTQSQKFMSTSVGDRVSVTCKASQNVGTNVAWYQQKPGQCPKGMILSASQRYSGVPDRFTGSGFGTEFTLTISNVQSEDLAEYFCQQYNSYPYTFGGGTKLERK
Sequence of 63F6, monoclonal anti-A199 antibody (VH, as listed by the source, chain 1 of 2): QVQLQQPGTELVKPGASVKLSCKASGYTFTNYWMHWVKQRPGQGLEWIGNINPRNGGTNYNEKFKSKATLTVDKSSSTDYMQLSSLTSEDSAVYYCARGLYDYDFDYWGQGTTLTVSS
Sequence of 63F6, monoclonal anti-A199 antibody (VL, as listed by the source, chain 2 of 2): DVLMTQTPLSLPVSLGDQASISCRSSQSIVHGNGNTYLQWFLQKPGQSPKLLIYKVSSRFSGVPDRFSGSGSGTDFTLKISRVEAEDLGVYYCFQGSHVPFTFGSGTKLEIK
Sequence of 8B3, monoclonal anti-L198 antibody (VH, as listed by the source, chain 1 of 2): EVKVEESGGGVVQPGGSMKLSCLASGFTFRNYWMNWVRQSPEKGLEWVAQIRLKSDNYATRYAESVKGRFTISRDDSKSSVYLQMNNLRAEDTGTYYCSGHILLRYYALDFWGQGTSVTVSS
Sequence of 8B3, monoclonal anti-L198 antibody (VL, as listed by the source, chain 2 of 2): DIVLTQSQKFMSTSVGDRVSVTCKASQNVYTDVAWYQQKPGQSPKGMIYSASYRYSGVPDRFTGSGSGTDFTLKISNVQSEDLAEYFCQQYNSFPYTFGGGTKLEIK
Sequence of 15H11, monoclonal anti-L198 antibody (VH, as listed by the source, chain 1 of 2): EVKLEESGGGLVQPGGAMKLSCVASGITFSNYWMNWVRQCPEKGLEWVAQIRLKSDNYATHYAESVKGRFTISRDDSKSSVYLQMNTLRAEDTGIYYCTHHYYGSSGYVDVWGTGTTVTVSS
Sequence of 15H11, monoclonal anti-L198 antibody (VL, as listed by the source, chain 2 of 2): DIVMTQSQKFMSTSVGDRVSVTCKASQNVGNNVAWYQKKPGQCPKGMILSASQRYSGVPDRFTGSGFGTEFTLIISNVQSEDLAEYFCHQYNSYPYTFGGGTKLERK
Sequence of 15F8, monoclonal anti-L198 antibody (VH, as listed by the source, chain 1 of 2): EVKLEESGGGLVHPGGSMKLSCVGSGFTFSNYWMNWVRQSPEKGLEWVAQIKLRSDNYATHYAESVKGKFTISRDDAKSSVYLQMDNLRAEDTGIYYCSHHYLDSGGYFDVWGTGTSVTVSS
Sequence of 15F8, monoclonal anti-L198 antibody (VL, as listed by the source, chain 2 of 2): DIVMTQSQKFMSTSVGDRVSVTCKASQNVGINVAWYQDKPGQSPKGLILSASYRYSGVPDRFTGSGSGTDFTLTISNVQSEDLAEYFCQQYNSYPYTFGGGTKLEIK

B1: negative control peptide AATVGSLAGQPLQER-Acp-C (SEQ ID NO:53) conjugated to BSA (peptide)
peptide: AATVGSLAGQPLQER[Ahx]C
modifications: not fully specified (residue 17); printed as AATVGSLAGQPLQER-Acp-C; also: C-terminal Cys conjugated to BSA carrier
notes: BSA carrier; also called 192-206 BSA-conjugated peptide
In the case of B1, the binding result in [1], in [2], in [3], in experiment [4], in [5] and in experiment [6] was “no binding (tested: 10000 ng/ml)” in each case. Besides, the binding result in experiment [7] and in experiment [8] was “no binding (tested: 10000 ng/ml)” each time.

B2: L198 N-terminal neo-epitope peptide LAGQPL-Acp-C (SEQ ID NO:52) conjugated to BSA (peptide)
peptide: LAGQPL[Ahx]C
modifications: not fully specified (residue 8); printed as LAGQPL-Acp-C; also: C-terminal Cys conjugated to BSA carrier
notes: BSA carrier; also called L198-BSA peptide
The term IC50 denotes the midpoint of a concentration-inhibition curve. Higher therefore signals a need for much substance. Regarding B2, the IC50 in [9] was 8.2 ng/mL; in experiment [10], 3.1 ng/mL; in experiment [11] it was 4.8 ng/mL; in experiment [12], 6.5 ng/mL; in experiment [13] it was 4.5 ng/mL. In addition, the binding result is recorded as “no binding (tested: 1000 ng/ml)” in [14]; “no binding (tested: 1000 ng/ml)” in experiment [15]; “no binding (tested: 1000 ng/ml)” in experiment [16]; “no binding (tested: 1000 ng/ml)” in experiment [17]; “no binding (tested: 1000 ng/ml)” in experiment [18]; “no binding (tested: 10000 ng/ml)” in [2]. In addition, the binding result in experiment [3] and in experiment [19] was “no binding (tested: 10000 ng/ml)” throughout.
